Results: patent publication US20130177579A1 (BIOALLIANCE C V, published 2013)

B1: antibody 6-90 (antibody, mouse IgM, V domains shown)
VH: EVELQQFGIEMVKPGASVKISCKASGYIFTDYHMDWVRQSHGKSLEWIGDIDPKYDRVTYNQKFKGKASLTADKSSSTAYMELRSLTSEDTAVYYCAKTGAYGDYLAYWGQGTLVTVSA
VL: DLVMTQTPLSLPVSLGDQASISCRSSQSLVHSDGNTYFYWYLQKPGQSPKLLIYKVSNRFSGVPDRFSAGGSGTYFTLKISRVEAEDLGVYFCSQTTHFPPTFGGGTKLEIKR
notes: Mouse IgM, kappa from a hybridoma; tested as hybridoma culture supernatant
B2: antibody 122-72 (antibody, V domains shown)
VH: EVQLVESGGGLVQPKGSLKLSCAASGFTFNTYAMNWVRQAPGKGLEWVARIRSKSNNYATYYADSVKDRFTISRDDSQSMLYLQMNNLKTEDTAMYYCVAYGSRNYWGQGTTLTVSS
VL: DIVMTQSPSSLTVTAGEKVTMSCKSSQSLLNSGNQKNYLTWYQQKPGQPPKLLIYWASTRESGVPDRFTGSGSGTDFTLTISSVQAEDLAVYYCQNDYSYPYTFGGGTKLEIKR
notes: Mouse IgM, kappa from a hybridoma; tested as hybridoma culture supernatant; Antibody 60-43 is said to have the same CDRs
B3: antibody 55-31 (antibody, mouse IgM, V domains shown)
VH: QVQLQQPGAELVKPGTSVKLSCKASGYNFTSYWINWVKLRPGQGLEWIGDIYPGSGSTNYNEKFKSKATLTVDTSSSTAYMQLSSLASEDSALYYCARSAYRYDWFAYWGQGTLVTVSA
VL: DIQMTQSPASLSVSVGETVTITCRASENIYSNLAWYQQKQGKSPQLLVYAATNLADGVPSRFSGSGSGTQYSLKINSLQSEDFGSYYCQHFWGTPYTFGGGTKLEIKR
notes: as for B1

How the values were obtained:
[1] = target: T1, human transferrin receptor expressed by normal human cells (RBC, PMN, lymphocytes, monocytes, platelets, … (human, UniProt P02786 1-760)); experiment: FACS, lymphocytes, donor D005, 1/10x
T1 construct: The assay is whole-cell FACS on normal donor cells; also called TfR on normal cells
Experimental: (§1) Preparation of PBMC and PMN: The whole blood was diluted with an equal volume of PBS and mixed with 1/10 volume of 15% Dextran solution. […] After centrifugation at 2200 rpm for 15 min (rotor: SORVALL, PN11788 and centrifuge: SORVALL, RT7), PBMC concentrated in the interface, were collected and washed with large volumes of FACS buffer (2% FBS in PBS) for future use. The PMN-rich pellet was collected, from which residual RBC was removed by hypotonic lysis in 0.2% NaCl.
(§2) 1×10⁵ cells were seeded in each well of a v-bottomed 96-well plate and incubated with 50 μl of hybridoma culture supernatant at 1× and 10× dilution, or isotype control antibody mouse IgM, κ (BD™, Cat. No. 557275) at concentration of 1 μg/ml. A 300× dilution of human cell hyper-immune serum was used as binding positive control for all cell types. PE-conjugated anti-human CD41a (Southern Biotech™, Cat. No. 9391-09) was used as a positive control for staining human platelets. Anti-sialyl Lewis x antibody (Millipore™, Cat. No. MAB2096) was used as a positive control for staining human PMN. Anti-human CD31 (Hycult™, Cat. No. HM2039) was used as a positive control for staining HUVEC. After 30 minutes incubation at 4° C., cells were washed twice with 200 μl FACS buffer (1×PBS containing 1% FBS), stained with 50 μl of 1 μg/ml goat F(ab′)2-anti-mouse IgG(H+L)-PE (Southern Biotech™, Cat. No. 1032-09) or 1 μg/ml goat F(ab′)2-anti-mouse IgM(H+L)-PE (Southern Biotech™, Cat. No. 1022-09) in FACS buffer. After 30 minutes of incubation at 4° C., cells were washed twice with FACS buffer and analyzed by flow cytometry (BD LSR, BD Life Sciences).

[2] = target: T1, human transferrin receptor expressed by …; experiment: FACS, RBC, donor D102, 1x
Experimental: (§3) The hyper-immuned serum (Hyp-serum) or the corresponding cell marker antibodies for certain cell types were included as positive controls.
as §2

[3] = target: T1, human transferrin receptor expressed by …; experiment: FACS, lymphocytes, donor D014, 1/10x
Experimental: as §1, §2

[4] = target: human transferrin receptor expressed by nonhematopoietic cancer cells (human) (UniProt P02786); experiment: FACS, OMC-3 cells, 1/5X
[5] = target: T1, human transferrin receptor expressed by …; experiment: FACS, monocytes, donor D005, 1/10x
Experimental: as §1, §2

[6] = target: T1, human transferrin receptor expressed by …; experiment: FACS, monocytes, donor D016, 1x
Experimental: as §3, §2

[7] = target: T1, human transferrin receptor expressed by …; experiment: FACS, platelets, donor D014, 1/10x
Experimental: as §3, §2

[8] = target: T1, human transferrin receptor expressed by …; experiment: FACS, platelets, donor D102, 1x
Experimental: as §3, §2

[9] = target: human transferrin receptor expressed by nonhematopoietic cancer cells (human) (UniProt P02786); experiment: FACS, Panc02.03B cells, 1/5X
[10] = target: T1, human transferrin receptor expressed by …; experiment: FACS, PMN, donor D014, 1/10x
Experimental: as §1, §2

[11] = target: T1, human transferrin receptor expressed by …; experiment: FACS, platelets, donor D005, 1x
Experimental: as §3, §2

[12] = target: T1, human transferrin receptor expressed by …; experiment: FACS, monocytes, donor D016, 1/10x
Experimental: as §3, §2

[13] = target: human transferrin receptor expressed by nonhematopoietic cancer cells (human) (UniProt P02786); experiment: FACS, HEC-1-A cells, 1/5X
[14] = target: T1, human transferrin receptor expressed by …; experiment: FACS, lymphocytes, donor D014, 1x
Experimental: as §1, §2

[15] = target: T1, human transferrin receptor expressed by …; experiment: FACS, PMN, donor D014, 1x
Experimental: as §3, §2

[16] = target: human transferrin receptor expressed by nonhematopoietic cancer cells (human) (UniProt P02786); experiment: FACS, SU.86.86 cells, 1/5X
[17] = target: T1, human transferrin receptor expressed by …; experiment: FACS, HUVEC, 1x
Experimental: as §3, §2

[18] = target: T1, human transferrin receptor expressed by …; experiment: FACS, PMN, donor D005, 1x
Experimental: as §3, §2

[19] = target: human transferrin receptor expressed by nonhematopoietic cancer cells (human) (UniProt P02786); experiment: FACS, DLD-1 cells, 1/5X
[20] = target: human transferrin receptor expressed by nonhematopoietic cancer cells (human) (UniProt P02786); experiment: FACS, Kato III cells, 1/5X
[21] = target: T1, human transferrin receptor expressed by …; experiment: FACS, PMN, donor D005, 1/10x
Experimental: as §1, §2

Sequence of human transferrin receptor expressed by nonhematopoietic cancer cells (human) (P02786 whole entry G142S): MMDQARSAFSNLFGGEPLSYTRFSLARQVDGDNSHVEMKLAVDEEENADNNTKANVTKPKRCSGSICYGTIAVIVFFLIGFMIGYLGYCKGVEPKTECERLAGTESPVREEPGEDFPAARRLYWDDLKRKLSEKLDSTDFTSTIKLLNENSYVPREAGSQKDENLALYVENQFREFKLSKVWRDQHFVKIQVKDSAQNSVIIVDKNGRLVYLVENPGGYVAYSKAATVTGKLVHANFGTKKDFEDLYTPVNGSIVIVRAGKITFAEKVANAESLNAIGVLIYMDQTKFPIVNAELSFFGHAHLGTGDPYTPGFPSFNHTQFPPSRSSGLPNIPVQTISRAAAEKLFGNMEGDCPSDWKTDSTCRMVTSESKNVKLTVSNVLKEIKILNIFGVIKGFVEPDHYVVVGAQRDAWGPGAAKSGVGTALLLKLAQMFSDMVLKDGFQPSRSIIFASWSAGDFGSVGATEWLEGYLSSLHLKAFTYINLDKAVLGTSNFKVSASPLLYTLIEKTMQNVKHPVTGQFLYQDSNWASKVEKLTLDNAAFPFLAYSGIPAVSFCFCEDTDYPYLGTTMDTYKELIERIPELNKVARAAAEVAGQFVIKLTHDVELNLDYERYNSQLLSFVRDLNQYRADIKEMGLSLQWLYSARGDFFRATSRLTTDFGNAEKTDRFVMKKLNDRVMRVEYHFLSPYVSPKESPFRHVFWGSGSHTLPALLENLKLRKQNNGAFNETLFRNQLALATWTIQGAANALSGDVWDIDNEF
T1 sequence (P02786 whole entry G142S): as above

Binder	% positive cell binding [1]	% positive cell binding [2]	% positive cell binding [3]	MFI [4]	% positive cell binding [5]	% positive cell binding [6]	% positive cell binding [7]	% positive cell binding [8]	MFI [9]	% positive cell binding [10]	% positive cell binding [11]	% positive cell binding [12]	MFI [13]	% positive cell binding [14]	% positive cell binding [15]	MFI [16]	% positive cell binding [17]	% positive cell binding [18]	MFI [19]	MFI [20]	other results
B1	3%	< 1%	1%	2150 MFI	4%	< 1%	< 1%	< 1%	4910 MFI	< 1%	< 1%	< 1%	11 MFI	1%	< 1%	2940 MFI	1%	1%	3900 MFI	1250 MFI	% positive cell binding [21]: < 1%
B2	1%	< 1%	1%	3040 MFI	4%	< 1%	< 1%	< 1%	4670 MFI	< 1%	< 1%	1%	15 MFI	< 1%	1%	4600 MFI	1%	< 1%	2690 MFI	724 MFI	% positive cell binding [21]: < 1%
B3	2%	< 1%	1%	179 MFI	3%	1%	< 1%	< 1%	314 MFI	< 1%	< 1%	< 1%	1240 MFI	1%	< 1%	96 MFI	2%	1%	104 MFI	97 MFI	% positive cell binding [21]: 1%
